In data set [1] the test system is healthy subjects. Put plainly: Phase 1 study in healthy subjects: pharmacodynamic profile (serum lipid parameters) of alirocumab alone or on top of ezetimibe or fenofibrate. Particulars: for Percent change in LDL-C during the run-in period (Day −29 to Day −1): ezetimibe 10 mg/day or fenofibrate 160 mg/day alone, before alirocumab, value on Day −1, mean (SEM); for Mean percent change in LDL-C from Day −1 baseline to Day 71: additional baseline Day −1 (start of alirocumab injection); for Mean percent change in LDL-C from Day −29 baseline to Day 71: main baseline Day −29 (start of placebo/EZE/FENO run-in), Day 71 = 14 days after 3rd alirocumab dose, 150 mg SC Q4W, N=24. The class given is in vivo, human. On the procedure:
(§1) The primary objective of the study was to assess the pharmacodynamic profile of alirocumab administered either alone or on top of ezetimibe or fenofibrate, based on low density lipoprotein cholesterol (LDL-C).
The study evaluated 72 healthy subjects.
Alirocumab was administered subcutaneously in the abdomen.
Ezetimibe was formulated as a 10 mg over-encasulated tablet (and matching placebo ezetimibe capsule). Ezetimibe was administered orally.
Fenofibrate was formulated at a 160 mg coated tablet. Fenofibrate was administered orally during a meal.
The duration of treatment was as follows.
The pharmacodynamic criteria were as follows. The primary endpoint was percent change in calculated serum LDL-C from baseline (D-29). The secondary endpoints were absolute change from baseline in calculated LDL-C, total cholesterol (TC), high density lipoprotein cholesterol (HDL-C), non-HDL-C, triglycerides (TG), apolipoprotein B (ApoB), apolipoprotein A1 (ApoA1), and lipoprotein a (Lp[a]) analyzed in percent and absolute change from baseline.
The blood sampling for lipid parameters (ie, LDL-C, TC, HDL-C, non-HDL-C, TG, ApoB, ApoA1, Lp[a]) were performed in the morning, in the fasted condition (at least 10-hours fasted and refrained from smoking), before any drug intake.
Blood samples were collected at screening; Day −1 of the run-in phase; and Days 8, 15, 22, 29±1, 57±1, 64±1, 71±1, 78±1, 85±1, 99±2, and 120±3 of the treatment phase.

A further data set relates to free PCSK9. As to the kind of experiment: Phase 1 study: circulating levels of free PCSK9. Particulars: for Free PCSK9 level at end of run-in period: prior to alirocumab treatment, from 152 (FENO) and 151 (EZE) at start of run-in. The class given is in vivo, human.
From the text: as §1

In data set [2] the test system is patients with genotype-confirmed hoFH. Particulars: ezetimibe 10 mg/day added to maximal dose of statins; cited from earlier work.
For data set [3] the following is noted: in vivo.
For data set [4] the following is noted: in vivo. The source holds these as a separate data set.
Procedure: Samples for the determination of anti-drug antibody (ADA) levels in serum were collected at Day −28 of the run-in phase; Days 29, 57, 85, and 120 of the treatment phase; and the EOS visit.
In neat serum samples, the validated lower limit of detection was approximately 1.5 ng/mL.
Data set [5] has as its system healthy subjects. As to the kind of experiment: Phase 1 study: safety (adverse events, laboratory, vital signs, ECG). Particulars: for Patients with any TEAEs, %: N = 24 per group.
Where [6] appears, read: additional baseline Day −1, 14 days after 3rd alirocumab dose.
Setting [7] is: listed as Alirocumab 150 mg Q4W + placebo.
Setting [8] is: main baseline Day −29, 14 days after 3rd alirocumab dose.
[9] abbreviates: median, additional baseline Day −1, 14 days after 3rd alirocumab dose.
The mark [10] stands for this setting: median, main baseline Day −29, 14 days after 3rd alirocumab dose.

Where “and” joins values, the source holds several entries; their conditions need not be identical. Identical values can stand only once. Like-named read-outs stand apart in the source and are kept apart here.

In the case of `O=C1[C@H](CC[C@H](O)c2ccc(F)cc2)[C@@H](c2ccc(O)cc2)N1c1ccc(F)cc1` [ezetimibe], the “Percent change in LDL-C during the run-in period (Day −29 to Day −1)” value in the data set with healthy subjects [1] is on record as −19.8 (2.1) %. Besides, the “Free PCSK9 level at end of run-in period” value in the data set with free PCSK9 is reported as 142 ng/mL. Moreover, the “Total reduction of LDL-C levels” value in data set [2] is 27%.
In the case of `CC(C)OC(=O)C(C)(C)Oc1ccc(C(=O)c2ccc(Cl)cc2)cc1` [fenofibrate, reference compound], the “Percent change in LDL-C during the run-in period (Day −29 to Day −1)” value with healthy subjects [1] is reported as −25.9 (3.2) %. Further, in the data set on free PCSK9, the “Free PCSK9 level at end of run-in period” value came to 217 ng/mL.
On to alirocumab, for which, in the data set on healthy subjects [1] (28 days after the 3rd administration of alirocumab), the “Percent change in LDL-C from Day −1 baseline to Day 85” value is reported as −47.03%. Moreover, in the data set on healthy subjects [1] (14 days after 3rd alirocumab dose, listed as Alirocumab 150 mg Q4W + placebo), the “Mean percent change in LDL-C from Day −1 baseline to Day 71” value is given as −47.4%. For the same compound, the “Mean percent change in LDL-C from Day −1 baseline to Day 71” value in the data set on healthy subjects [1] (14 days after 3rd alirocumab dose, listed as alirocumab alone) was −47.39% and −47.4 (3.2) %. Also, in the data set with healthy subjects [1] (setting [6]), the “Mean percent change in Apolipoprotein B from Day −1 baseline to Day 71” value is −38.4%, the “Mean percent change in HDL-C from Day −1 baseline to Day 71” value amounted to 3.6%, the “Mean percent change in Non-HDL-C from Day −1 baseline to Day 71” value is on record as −43.0% and the “Mean percent change in Total cholesterol from Day −1 baseline to Day 71” value is on record as −31.5%. In addition, the “LDL-C reductions, sustained over the 28-day dosing interval” value in the data set with healthy subjects [1] (alirocumab 150 mg Q4W monotherapy, regardless of baseline) is about 48%. The “Mean percent change in LDL-C from Day −29 baseline to Day 71” value with healthy subjects [1] (setting [7]) is reported as −48.2%. For the same compound, in the data set with healthy subjects [1] (listed as alirocumab alone), the “Mean percent change in LDL-C from Day −29 baseline to Day 71” value is −47.59% and −48.2 (2.3) %. Moreover, in the data set with healthy subjects [1] (setting [8]), the “Mean percent change in Apolipoprotein B from Day −29 baseline to Day 71” value was −39.1%, the “Mean percent change in HDL-C from Day −29 baseline to Day 71” value was found to be 3.3%, the “Mean percent change in Non-HDL-C from Day −29 baseline to Day 71” value is −43.0% and the “Mean percent change in Total cholesterol from Day −29 baseline to Day 71” value is recorded as −31.6%. For the same compound, in the data set on healthy subjects [1] (setting [9]), the “Median percent change in Lipoprotein (a) from Day −1 baseline to Day 71” value is recorded as −11.7% and the “Median percent change in Triglycerides from Day −1 baseline to Day 71” value is −3.9%. In addition, in the data set with healthy subjects [1] (setting [10]), the “Median percent change in Lipoprotein (a) from Day −29 baseline to Day 71” value is on record as −20.3% and the “Median percent change in Triglycerides from Day −29 baseline to Day 71” value came out at 5.7%. Besides, the “Effect on free PCSK9 after alirocumab injection” value in the data set with free PCSK9 (after the 1st and 3rd alirocumab injections) is reported as “complete suppression”. Further, in data set [3] (human), the “AUClast, Geometric Mean” value was “(306) [38.4] mg · day/l”; the “AUClast, Mean ± SD” value is 326 ± 125 mg·days/L; the “CL/F, Mean ± SD” value is 0.312 ± 0.124 L/day; the “Cmax, Mean ± SD” value turned out to be 24300 ± 8610 ng/mL. In addition, in data set [3] (human), the “MRT, Geometric Mean” value was “(18.2) [20.7] day”; the “MRT, Mean ± SD” value stood at 18.5 ± 3.84 days; the “t1/2z, Geometric Mean” value was “(8.37) [35.7] day”; the “t1/2z, Mean ± SD” value was 8.76 ± 3.12 days. For the same compound, the “Cmax, Mean ± SD” value in data set [3] (human, sc, 150 mg) was 20400 ± 13500 ng/mL. Moreover, in data set [3], the “AUC, Geometric Mean” value is “(318) [58.9]^b mg · day/l”; the “AUC, Mean ± SD” value was 357 ± 210 mg·days/L; the “AUCExt (percentage of extrapolation of AUC), Geometric Mean” value was “(22) [44.7] %”; the “AUCExt (percentage of extrapolation of AUC), Mean ± SD” value is listed as 25 ± 11%. The “tlast, Median” value in data set [3] was 69.00 days. Moreover, in data set [4], the “Subjects tested ADA positive, %” value is listed as 16.7% and the “Subjects tested ADA positive, number” value was “Four out of 24”. Further, in the data set on healthy subjects [5] (N = 24), the “Abdominal pain (TEAE), %” value is “(8.3) %”; the “Gastroenteritis viral (TEAE), %” value was “(0) %”; the “Headache (TEAE), %” value is recorded as “(12.5) %”; the “Influenza (TEAE), %” value is listed as “(8.3) %”. In the data set on healthy subjects [5] (N = 24), the “Influenza-like illness (TEAE), %” value is recorded as “(4.2) %” and the “Nasopharyngitis (TEAE), %” value is recorded as “(12.5) %”. For the same compound, the “Patients with any TEAEs, %” value with healthy subjects [5] (setting [7]) is “(50.0) %”. Moreover, the “Patients with any TEAEs, %” value in the data set with healthy subjects [5] (listed as alirocumab alone) worked out at 50.0%. Also, in the data set on healthy subjects [5] (alone or on top of ezetimibe or fenofibrate, 150 mg Q4W for 3 administrations, healthy subjects), the Tolerability result is “well tolerated”.
